Assay results reported in patent US20220056125A1 (CEPHALON, published 2022).
“And” between values parts separate entries of the source, which are not always exact repeats. Equal values may be shown once.

T1: human PAR-2 (human, UniProt P55085 26-397)
T1 sequence: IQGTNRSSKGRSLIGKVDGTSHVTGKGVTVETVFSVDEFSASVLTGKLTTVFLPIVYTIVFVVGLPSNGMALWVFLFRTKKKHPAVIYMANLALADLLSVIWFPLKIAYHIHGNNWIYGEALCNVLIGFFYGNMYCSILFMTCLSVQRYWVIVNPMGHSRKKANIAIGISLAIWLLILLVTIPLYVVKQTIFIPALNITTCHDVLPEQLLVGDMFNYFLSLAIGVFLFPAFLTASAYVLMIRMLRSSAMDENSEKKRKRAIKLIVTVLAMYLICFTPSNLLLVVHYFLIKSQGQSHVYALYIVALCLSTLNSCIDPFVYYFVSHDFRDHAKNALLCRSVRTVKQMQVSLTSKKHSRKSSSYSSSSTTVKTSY


Experiments:
Experiment in all cases: cell-based or functional assay
human PAR-2 [1] = target: T1, human PAR-2
human PAR-2 [2] = target: T1, human PAR-2; remark: listed apart in the source
human PAR-2 [3] = target: T1, human PAR-2; remark: listed apart in the source

| Binder | PAR-2 β-arrestin cell assay IC50, 1 µM SLIGKV (human PAR-2 [1]) [nM] | Calcium flux IC50 (human PAR-2 [2]) | IL-6 release in A549 cells IC50 (human PAR-2 [2]) [nM] | IL-8 release in A549 cells IC50 (human PAR-2 [2]) [nM] | PAR-2 β-arrestin cell based assay IC50, 2 µM SLIGKV (human PAR-2 [3]) | PAR-2 calcium flux cell assay IC50 (human PAR-2 [1]) [nM] |
| --- | --- | --- | --- | --- | --- | --- |
| 309-6i (antibody, human IgG4 S228P, kappa, V domains shown) VH: EVQLVESGGGLVQPGGSLRLSCAASGFSLNSYGVIWVRQAPGKGLEWVSVIWGNGNTYYNDSVKGRFTISRDNSKNTLYLQMNSLRAEDTAVYYCARWRGYKDYPFDYWGQGTLVTVSS VL: DIQMTQSPSSLSASVGDRVTITCKASQNIYKYLDWYQQKPGKAPKRLIYNTNSLHTGVPSRFSGSGSGTEFTLTISSLQPEDFATYYCLQHNSGWTFGGGTKVEIKR | 40.6 |  |  |  |  |  |
| P24E976 (antibody, human IgG4 S228P, kappa, V domains shown) VH: QVQLVQSGAEVKKPGSSVKVSCKASGFSLSSYAISWVRQAPGQGLEWMGVIWGNQNVYYAQKFQGRVTITADESTSTAYMELSSLRSEDTAVYYCARWKGYKDYPFDYWGQGTLVTVSS VL: EIVLTQSPATLSLSPGERATLSCRASQNVYKWLDWYQQKPGQAPRLLIYNAYSRATGIPARFSGSGSGRDFTLTISSLEPEDFAVYYCQQHHSGWTFGGGTKVEIKR |  | 15.9 nM and 15.3 nM and 7.1 nM and 5.9 nM | 5.63 | 4.25 | 0.9 nM and 1.26 nM |  |
| P24E1099 (antibody, human IgG4 S228P, kappa, V domains shown) VH: QVQLVQSGAEVKKPGSSVKVSCKASGFSLSSYAISWVRQAPGQGLEWMGVIWGNQNVYYAQKFQGRVTITADESTSTAYMELSSLRSEDTAVYYCARWKGYKDYPFDYWGQGTLVTVSS VL: EIVLTQSPATLSLSPGERATLSCRASQNVYKWLDWYQQKPGQAPRLLIYNANSRATGIPARFSGSGSGRDFTLTISSLEPEDFAVYYCQQHHSGWTFGGGTKVEIKR |  | 12.3 nM | 6.74 | 4.89 | 1.37 nM |  |
| 309-6e (antibody, human IgG4 S228P, kappa, V domains shown) VH: EVQLVESGGGLVQPGGSLRLSCAASGFSLNSYGVIWVRQAPGKGLEWVSVIWGNGNTYYNDSVKGRFTISRDNSKNTLYLQMNSLRAEDTAVYYCARWRGYKDYPFDYWGQGTLVTVSS VL: EIVLTQSPATLSLSPGERATLSCKASQNIYKYLDWYQQKPGQAPRLLIYNTNSLHTGIPARFSGSGSGRDFTLTISSLEPEDFAVYYCLQHNSGWTFGGGTKVEIKR | 5.6 |  |  |  |  | 12.7 |
| 309-12e (antibody, human IgG4 S228P, kappa, V domains shown) VH: QVQLQQWGAGLLKPSETLSLTCAVYGFSLNSYGVIWIRQPPGKGLEWIGVIWGNGNTYYNPSLKSRVTISVDTSKNQFSLKLSSVTAADTAVYYCARWRGYKDYPFDYWGQGTLVTVSS VL: EIVLTQSPATLSLSPGERATLSCKASQNIYKYLDWYQQKPGQAPRLLIYNTNSLHTGIPARFSGSGSGRDFTLTISSLEPEDFAVYYCLQHNSGWTFGGGTKVEIKR | 2.3 |  |  |  |  | 8.3 |
| 309-11e (antibody, human IgG4 S228P, kappa, V domains shown) VH: QVQLQESGPGLVKPSETLSLTCTVSGFSLNSYGVIWIRQPPGKGLEWIGVIWGNGNTYYNPSLKSRVTISVDTSKNQFSLKLSSVTAADTAVYYCARWRGYKDYPFDYWGQGTLVTVSS VL: EIVLTQSPATLSLSPGERATLSCKASQNIYKYLDWYQQKPGQAPRLLIYNTNSLHTGIPARFSGSGSGRDFTLTISSLEPEDFAVYYCLQHNSGWTFGGGTKVEIKR | 6.1 |  |  |  |  | 22.8 |
| P24E1103 (antibody, human IgG4 S228P, kappa, V domains shown) VH: QVQLVQSGAEVKKPGSSVKVSCKASGFSLSSYAISWVRQAPGQGLEWMGVIWGNQNVYYAQKFQGRVTITADESTSTAYMELSSLRSEDTAVYYCARWKGYKDYPFDYWGQGTLVTVSS VL: EIVLTQSPATLSLSPGERATLSCRASQNVYKWLDWYQQKPGQAPRLLIYNANNRATGIPARFSGSGSGRDFTLTISSLEPEDFAVYYCQQHHSGWTFGGGTKVEIKR |  | 12.7 nM | 7.18 | 5.17 | 1.54 nM |  |
